This note sets out measurements from doi:10.1101/2022.02.07.479474.

Targets include PBRM1 BD4 (UniProt Q86U86 496-637); PBRM1 BD4 KRK (UniProt Q86U86 496-637, K511A;R512A;K513A); PBRM1 BD2 (UniProt Q86U86 178-291); PBRM1 BD2 SKY (UniProt Q86U86 178-291, S275A;K277A;Y281A).
Assay in all cases: NMR

PBRM1 BD4, sequence (Q86U86 496-637): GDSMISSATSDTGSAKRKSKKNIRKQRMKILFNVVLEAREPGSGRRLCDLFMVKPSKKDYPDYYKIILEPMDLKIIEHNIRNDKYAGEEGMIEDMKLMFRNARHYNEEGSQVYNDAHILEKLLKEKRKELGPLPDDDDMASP
PBRM1 BD4 KRK, sequence (Q86U86 496-637 K511A/R512A/K513A): as the sequence (Q86U86 496-637) above, with K16A, R17A, K18A counted along it
PBRM1 BD2 SKY, sequence (Q86U86 178-291 S275A/K277A/Y281A): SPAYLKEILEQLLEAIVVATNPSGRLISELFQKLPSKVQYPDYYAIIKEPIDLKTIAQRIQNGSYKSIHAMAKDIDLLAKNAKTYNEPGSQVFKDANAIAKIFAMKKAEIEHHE
PBRM1 BD2, sequence (Q86U86 178-291): as the sequence (Q86U86 178-291 S275A/K277A/Y281A) above, with A98S, A100K, A104Y counted along it

B1: dsRNAI (structured_RNA)
RNA: GCGUAGACAGCUGUUCGCAGCUGUCUAUGC
Broadly, the Kd is the constant that tells how readily two partners part at equilibrium. Take B1: the dissociation constant Kd was found to be 120 ± 20 µM with PBRM1 BD4, 1.02 ± 0.04 mM with PBRM1 BD4 KRK, 25 ± 8 µM in the series with PBRM1 BD2 and 200 ± 70 µM with PBRM1 BD2 SKY.
